Assays:
Human IL-1β [1] = target: T1, Human IL-1β (human, UniProt P01584 117-269); test: cell-based or functional assay
Cyno IL-1β = Cyno IL-1β (cyno, UniProt P79182 117-268); test: cell-based or functional assay
Human IL-1β [2] = target: T1, Human IL-1β; test: MSD-SET (solution equilibrium titration, electrochemiluminescence), 37° C., 72 h equilibrium
Protocol: MSD (Meso Scale Discovery) electrochemiluminescence assay is utilized to measure the affinity of Antibody I, Antibody II, and Canakinumab against human IL-1β. First, the equilibrium mixture of antibodies and human IL-1β is set up; in the mixture the antibody, concentrations are kept constant at 1 pM, 10 pM, and 100 pM whereas the ligand is titrated in the concentration ranging from 0.9 nM to 0.00004 nM (2.5 times dilution between concentrations) The equilibrium mixture is set up in sealed non-binding 96-well plate at 37° C. for 72 hours.
MSD Gold Streptavidin plates are used to detect the free antibodies in the equilibrium mixture. The MSD plates are first blocked with blocking buffer (PBS+1% BSA) for 1 hour on a shaker set at 800 rpm and then washed 3 times with washing buffer PBST (PBS ±0.05% Tween 20). The plates are coated with biotinylated human IL-1p followed by 3× washing with PBST. The equilibrium mixtures are added to the coated plate, incubated at room temperature with shaking for 2.5 mins and immediately washed 3× with PBST. The goat anti-human Sulfo-TAG antibody is added to the plate and incubated at room temperature for 1 hour with shaking. After three more washes, MSD Read Buffer at 1:2 concentration diluted in MilliQ water is added to the wells. immediately afterwards, the plates are read using an MSD Sector Imager 516000 instrument.

B1: Canakinumab (antibody, human IgG4 S228P, kappa, F234A L235A, V domains shown)
VH: QVQLVESGGGVVQPGRSLRLSCAASGFTFSVYGMNWVRQAPGKGLEWVAIIWYDGDNQYYADSVKGRFTISRDNSKNTLYLQMNGLRAEDTAVYYCARDLRTGPFDYWGQGTLVTVSS
VL: EIVLTQSPDFQSVTPKEKVTITCRASQSIGSSLHWYQQKPDQSPKLLIKYASQSFSGVPSRFSGSGSGTDFTLTINSLEAEDAAAYYCHQSSSLPFTFGPGTKVDIKR
- Human IL-1β Inhibition IC50 (HEK-Blue IL-1β reporter cells, 4 pM IL-1β) (Human IL-1β [1]): 29.2 pM
- Cyno IL-1β Inhibition IC50 (HEK-Blue IL-1β reporter cells, 4 pM IL-1β) (Cyno IL-1β): > 10000 pM
- Kd (Human IL-1β [2]): 13.1 pM

— patent US20230057665A1 (Eli Lilly, published 2023)
